According to publication PMC9481602 (Nature Communications, 2022):

Assays:
nonmodified ubiquitin = biological target: T1, nonmodified ubiquitin (UniProt P0CG48 1-76); assay: NMR titration; unlabelled Ubiquilin-2 UBA domain added stepwise to 15N-labelled Ub variants (33 µM Ub 11AcK and nonmodified Ub; 157 µM the other variants); 1H-15N HSQC, 298 K, 18.8 T, 20 mM NaH2PO4 pH 6.8, 5% D2O; global fit of six residues assuming 1:1 binding; details: both partners purified
T1 construct: ubiquitin (Ub), the 76-residue cut product of its precursors; codon-optimized cDNA; 15N isotopically labelled in the NMR titration; also called Ub (wt); source: E. coli, purified (HisTrap, His-tag removed with UCHL3, HiTrap SP); not shown: His6, C-terminal, cleaved

[1] = biological target: T2, ubiquitin acetylated at K11 (UniProt P0CG48 1-76, acetyllysine (AcK) at position 11); assay: as above; details: both partners purified
T2 construct: ubiquitin (Ub), the 76-residue cut product of its precursors; codon-optimized cDNA; K11 replaced by acetyllysine; 15N isotopically labelled in the NMR titration; also called Ub 11AcK; source: E. coli B834 (DE3), amber suppression with AcK-RS/tRNA, purified (HisTrap, His-tag removed with UCHL3, HiTrap SP); not shown: His6, C-terminal, cleaved

B1: UBA domain of human Ubiquilin-2 (domain or fragment, UniProt Q9UHD9 581-621, looked up)
chain: RFQQQLEQLNAMGFLNREANLQALIATGGDINAAIERLLGS
notes: Ubiquilin-2 (Chap1, hPLIC-2), human, UBA domain; Unlabelled; also called UQ2-UBA; Chap1; source: E. coli BL21 (DE3) Rosetta, purified (Glutathione Sepharose, TEV cleavage, SEC); not shown: GST, N-terminal, cleaved
Kd (nonmodified ubiquitin): 2000 ± 400 nM
Kd [1]: 8 ± 0.8 µM
